Measurements reported in US20260042834A1 (HBM ALPHA THERAPEUTICS, published 2026).
“And” between values parts separate entries of the source, which are not always exact repeats. Equal entries are not always repeated.

B1: PR303394 (antibody, human IgG1, kappa, V domains shown)
VH: EVQLQQSGPELVKPGVSMKISCKASGYSFTDSTMNWVKQSHGKNLEWIGLIHPDNGGTIYNQKFKGKATLTVHKSSSTAYMELLSLTSEDSAVYYCANGFAYWGQGTLVTVSA
VL: DVVMTQTPLSLPVSLGDQASISCRSSQSLLHSNGNTYLHWYLQKPGQSPELLIYKVSNRFSGVPDRFSGSGSGTDFTLKISRVEAEDLGVYFCSQSTHVPLTFGAGTKLELKR
notes: also called analog of CTRND05
B2: PR005660 (antibody, human IgG1, kappa, V domains shown)
VH: EVQLVESGGVLVQPGGSLRLSCAASGFTFSSYWMTWVRQAPGKGLEWVANIKQEGSEKYYVDSVKGRFTISRDNAKNSLFLQMNSLRAEDTAVYYCARTLIFDYWGQGTLVTVSS
VL: DIVMTQSPLSLPVTPGEPASISCRSSQSLLHSTGYQSLEWYLQKPGQSPQLLIYLGSNRASGVPDRFSGSGSGTDFTLKISRVEAEDVGIYYCMQTLQTPITFGQGTRLEIKR
notes: PTM-removal variant of PR004290
B3: PR302309-11 (antibody, human IgG1, kappa, V domains shown)
VH: QIQLVQSGSELKKPGASVKVSCKASGYTFTNYGMNWVRQAPGQGLEWMGWINTYTGEPIYTDDFKGRFVFSLDTSVSTAYLQISSLKAEDTAVYYCSRSTMITTGGVFAYWGQGTLVTVSS
VL: DIVMTQTPLSSPVTLGQPASISCRSSQTIVHSDGNTYLEWLQQRPGQPPRLLIYKVSNRFSGVPDRFSGSGAGTDFTLKISRVEAEDVGVYYCFQGSHVPWTFGGGTKVEIKR
notes: Humanized variant of PR302309
B4: PR302050 (antibody, human IgG1, kappa, V domains shown)
VH: EMQLVESGGGLVQPGGSLKLSCAASGFTFSNYWMNWVRQASGKGLEWVAEIRLKSNNYATHYAESVKGRFTISRDDSKSTVYLQMNSLKTEDTAVYYCTVGTLVYWGQGTLVTVSS
VL: DIVLTQSPDSLAVSLGERATINCRASQSVSTSTYNYMHWFQQKPGQPPKLLIKFASNLESGVPDRFSGSGSGTDFTLTISSLQAEDTAVYYCQHSWEIPYTFGQGTKLEIKR
notes: Humanized variant of PR301777
B5: PR302055 (antibody, human IgG1, kappa, V domains shown)
VH: EMQLVESGGGLVQPGGSLKLSCAASGFTFSNYWMNWVRQASGKGLEWVAEIRLKSNNYATHYAESVKGRFTISRDDSKSTVYLQMNSLKTEDTAVYYCTVGTLVYWGQGTLVTVSS
VL: DIQLTQSPSSLSASVGDRVTITCRASQSVSTSTYNYMHWFQQKPGKAPKLLIKFASNLESGVPSRFSGSGSGTDFTLTISSLQPEDTATYYCQHSWEIPYTFGQGTKLEIKR
notes: Humanized variant of PR301777
B6: PR302069 (antibody, human IgG1, kappa, V domains shown)
VH: EMQLVESGGGLVKPGGSLRLSCAASGFTFSNYWMNWVRQAPGKGLEWVAEIRLKSNNYATHYAESVKGRFTISRDDSKSTVYLQMNSLKTEDTAVYYCTVGTLVYWGQGTLVTVSS
VL: DIQLTQSPSSLSASVGDRVTITCRASQSVSTSTYNYMHWFQQKPGKAPKLLIKFASNLESGVPSRFSGSGSGTDFTLTISSLQPEDTATYYCQHSWEIPYTFGQGTKLEIKR
notes: Humanized variant of PR301777

Assays:
human UCN3 peptide = target: T1, human UCN3 peptide (human, UniProt Q969E3 120-157, not fully specified; biotin at N- or C-terminus in the ELISA); assay: ELISA on streptavidin-captured hUCN3 (NT biotin) and hUCN3 (CT biotin), mAb at 100 nM and 10 nM, OD450
T1 construct: also called hUCN3; hUCN3 (NT Biotin)
T1 peptide (looked up): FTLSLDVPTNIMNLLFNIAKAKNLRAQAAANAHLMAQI
Method: (§1) Streptavidin (Thermo, Cat: 21125) was diluted in PBS with a concentration of 2 μg/mL. 100 μL of diluted streptavidin was added per well to ELISA microplates, and the plates were incubated overnight at 4° C. Plates were blocked with ELISA blocking solution (containing 2% w/v BSA, 0.05% (v/v) Tween-20, pH 7.4 PBS buffer) at 37° C. for 1 hour, and then incubated with either 1 μg/mL hUCN1 (NT Biotin), hUCN1 (CT Biotin), hUCN2 (NT Biotin), hUCN2 (CT Biotin), hUCN3 (NT Biotin), or hUCN3 (CT Biotin) for 1 hour at 37° C. […] 100 μl of TMB Substrate (Biopanda, Cat: TMB-S-003) was added, and the plates were incubated at room temperature for 15 minutes. 100 μL of ELISA stopping solution (Solarbio, Cat #: C1058) was then added to terminate the reaction, and the OD450 nm was determined by an ELISA plate reader (Molecular Devices, Spectra max 384 plus).

human UCN2 peptide = target: T2, human UCN2 peptide (human, UniProt Q96RP3 72-109, limits assumed, not fully specified; biotin at N- or C-terminus in the ELISA); assay: ELISA on streptavidin-captured hUCN2 (NT biotin) and hUCN2 (CT biotin), mAb at 100 nM and 10 nM, OD450
T2 construct: also called hUCN2; hUCN2 (NT Biotin)
T2 peptide (looked up): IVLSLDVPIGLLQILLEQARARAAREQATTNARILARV
Method: as §1

[1] = target: T3, corticotropin-releasing hormone (CRH) peptide (human and mouse, not fully specified); assay: cell-based or functional assay
T3 peptide: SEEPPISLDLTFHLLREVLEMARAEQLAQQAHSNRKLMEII

human UCN1 peptide = target: T4, human UCN1 peptide (human, UniProt P55089 83-122); assay: cell-based or functional assay
T4 peptide (looked up): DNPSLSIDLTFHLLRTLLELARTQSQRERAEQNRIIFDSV

hUCN1 (NT Biotin) = target: T5, hUCN1 (NT Biotin) (human, UniProt P55089 83-122, biotin at the N-terminus); assay: ELISA, biotin peptide on streptavidin plate
T5 construct: also called human UCN1 (NT biotin)
T5 peptide (looked up): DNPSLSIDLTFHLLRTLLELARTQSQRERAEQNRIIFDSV
Method: (§2) Streptavidin (Thermo, Cat: 21125) was diluted in PBS to a concentration of 2 μg/ml. 100 μl of diluted streptavidin was added per well to ELISA microplates, and the plates were incubated overnight at 4° C. […] 100 μL of 3,3′,5,5′-tetramethylbenzidine (TMB) substrate (Biopanda, Cat: TMB-S-003) was added, and the plates were incubated at room temperature for 15 minutes. 100 μL of ELISA stopping solution (Solarbio, Cat #: C1058) was added to terminate the reaction, and the optical density at 450 nm (OD450 nm) was determined by an ELISA plate reader (Molecular Devices, Spectra max 384 plus).

CRH (NT Biotin) = target: T6, CRH (NT Biotin) (human and mouse, not fully specified; biotin at the N-terminus); assay: ELISA, biotin peptide on streptavidin plate
T6 peptide: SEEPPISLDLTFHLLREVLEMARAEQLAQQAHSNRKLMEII
Method: as §2

hUCN1 (CT Biotin) = target: T7, hUCN1 (CT Biotin) (human, UniProt P55089 83-122, biotin at the C-terminus); assay: ELISA, biotin peptide on streptavidin plate
T7 construct: also called human UCN1 (CT biotin)
T7 peptide (looked up): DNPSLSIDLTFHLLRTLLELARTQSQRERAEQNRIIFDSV
Method: as §2

biotinylated CRH [2] = target: T8, biotinylated CRH (human and mouse, not fully specified; biotinylated, position not stated); assay: Octet BLI, biotinylated CRH on SA sensor
T8 construct: also called Biotin-CRH; biotin-labeled CRH
T8 peptide: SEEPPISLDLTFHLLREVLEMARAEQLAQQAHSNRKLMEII

CRH (CT Biotin) = target: T9, CRH (CT Biotin) (human and mouse, C-terminal K-Biotin); assay: ELISA, biotin peptide on streptavidin plate
T9 construct: also called Peptide 4 (CRH-Biotin)
T9 peptide: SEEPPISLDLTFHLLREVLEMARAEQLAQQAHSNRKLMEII
Method: as §2

N-Terminal CRH = target: T10, N-Terminal CRH (human and mouse, C-terminal K-Biotin); assay: ELISA, biotin peptide on streptavidin plate
T10 construct: also called N-Ter-CRH (CT-Bion)
T10 peptide: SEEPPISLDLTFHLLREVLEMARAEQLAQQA
Method: as §2

biotinylated CRH [3] = target: T8, biotinylated CRH; assay: competitive ELISA, coated 1st mAb; competitor PR302069
Method: (§3) For epitope binding, a competitive ELISA was performed. Specifically, 1 μg/ml of capture antibody, 100 μl/well, was coated on a 96 well-plate at 4° C. overnight. Plates were blocked with ELISA blocking solution (containing 2% w/v BSA, 0.05% (v/v) Tween-20, pH 7.4 PBS buffer) at 37° C. for 1 hour. […] Subsequently, plates were washed and incubated with Streptavidin-Peroxidase (SIGMA, Cat: 52438-250UG) at 37° C. for 1 hour. 100 μL of 3,3′,5,5′-tetramethylbenzidine (TMB) substrate (Biopanda, Cat: TMB-S-003) was added, and the plates were incubated at room temperature for 15 minutes. 100 μL of ELISA stopping solution (Solarbio, Cat #: C1058) was added to terminate the reaction, and the optical density at 450 nm (OD450 nm) was determined by an ELISA plate reader (Molecular Devices, Spectra max 384 plus).

biotinylated CRH [4] = target: T8, biotinylated CRH; assay: competitive ELISA, coated 1st mAb; competitor PR301777
Method: as §3

biotinylated CRH [5] = target: T8, biotinylated CRH; assay: competitive ELISA, coated 1st mAb; competitor PR302055
Method: as §3

biotinylated CRH [6] = target: T8, biotinylated CRH; assay: competitive ELISA, coated 1st mAb; competitor PR302050
Method: as §3

biotinylated CRH [7] = target: T8, biotinylated CRH; assay: competitive ELISA, coated 1st mAb; competitor PR006152
Method: as §3

biotinylated CRH [8] = target: T8, biotinylated CRH; assay: competitive ELISA, coated 1st mAb; competitor PR006148
Method: as §3

biotinylated CRH [9] = target: T8, biotinylated CRH; assay: competitive ELISA, coated 1st mAb; competitor hIgG1
Method: as §3

biotinylated CRH [10] = target: T8, biotinylated CRH; assay: competitive ELISA, coated 1st mAb; competitor PR004290
Method: as §3

biotinylated CRH [11] = target: T8, biotinylated CRH; assay: competitive ELISA, coated 1st mAb; competitor PR005660
Method: as §3

biotinylated CRH [12] = target: T8, biotinylated CRH; assay: competitive ELISA, coated 1st mAb; competitor PR302064
Method: as §3

Row | Binder | binding result (human UCN3 peptide) | binding result (human UCN2 peptide) | CHO-CRE-hCRHR1 0.5 nM CRH IC50 [1] | EC50 (hUCN1 (NT Biotin)) | EC50 (CRH (NT Biotin)) | EC50 (hUCN1 (CT Biotin)) | Kd (biotinylated CRH [2]) | EC50 (CRH (CT Biotin)) | EC50 (N-Terminal CRH) | koff (biotinylated CRH [2]) | % Inhibition (biotinylated CRH [3]) | % Inhibition (biotinylated CRH [4]) | % Inhibition (biotinylated CRH [5]) | % Inhibition (biotinylated CRH [6]) | % Inhibition (biotinylated CRH [7]) | % Inhibition (biotinylated CRH [8]) | % Inhibition (biotinylated CRH [9]) | % Inhibition (biotinylated CRH [10]) | % Inhibition (biotinylated CRH [11]) | % Inhibition (biotinylated CRH [12]) | further results
1 | B1 | no binding (tested: 100 nM) | no binding (tested: 100 nM) | 2.77 nM | 0.018 nM | 0.028 nM | 0.022 nM | 0.0136 nM | – | – | – | – | – | – | – | – | – | – | – | – | – | CHO-CRE-hCRHR1 1 nM hUCH1 IC50 (human UCN1 peptide): 42.5 nM
2 | B2 | no binding (tested: 100 nM) | no binding (tested: 100 nM) | 10.3 nM | 9.37 nM | 0.028 nM | – | 0.12 nM and 0.0409 nM | 0.054 nM | 0.076 nM | – | – | – | – | – | – | – | – | – | – | – | –
3 | B3 | no binding (tested: 100 nM) | no binding (tested: 100 nM) | 2.12 nM | 0.078 nM | 0.032 nM | 0.451 nM | 0.0551 nM | 0.032 nM | 0.028 nM | 8.48e-06 s⁻¹ | – | – | – | – | – | – | – | – | – | – | kon (biotinylated CRH [2]): 154000 M⁻¹ s⁻¹
4 | B4 | – | – | – | – | – | – | < 0.001 nM | – | – | < 1e-07 s⁻¹ | 94% | 94% | 94% | 94% | 96% | 95% | 0% | 94% | 94% | 95% | kon (biotinylated CRH [2]): 470000 M⁻¹ s⁻¹
5 | B5 | – | – | – | – | – | – | – | – | – | – | 95% | 94% | 95% | 95% | 95% | 95% | 2% | 94% | 94% | 95% | –
6 | B6 | – | – | – | – | – | – | – | – | – | – | 95% | 94% | 95% | 95% | 94% | 95% | 0% | 93% | 94% | 95% | –
